What was measured:
CLDN-5 = CLDN-5 localization by immunostaining in blood-brain barrier simulation system; format: cell-based; conditions: monkey BBB kit, 12 hours after addition, FIG. 14
hCLDN-5 [1] = test: Epitope analysis by hCLDN-5/hCLDN-1 chimeric CLDN (FACS), loop assignment; format: binding, human; conditions: antibody concentration 5 μg/mL, hCLDN-5/hCLDN-1 chimeras
mCLDN-5 [2] = target: T1, mCLDN-5 (Mus musculus, UniProt O54942); test: Cross-species activity FACS, mCLDN-5-expressing cells; format: binding; conditions: antibody concentration 5 μg/mL, FIG. 2
T1 construct: expressed in transfected cells; host or cells: retrovirus-infected cells
T1 sequence (O54942 1-218): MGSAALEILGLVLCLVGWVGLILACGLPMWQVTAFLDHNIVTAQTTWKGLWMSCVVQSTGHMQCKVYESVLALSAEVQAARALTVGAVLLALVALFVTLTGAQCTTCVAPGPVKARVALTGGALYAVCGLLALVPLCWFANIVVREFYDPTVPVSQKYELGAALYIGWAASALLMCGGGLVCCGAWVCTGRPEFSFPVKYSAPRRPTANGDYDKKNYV

5-5-1 = target: T2, 5-5-1 (Homo sapiens, UniProt O00501, A162Q/K157R/L160F/Q156A/S151M/S155N/V152T); test: Epitope analysis FACS, chimeric protein 5-5-1; format: binding; conditions: antibody concentration 5 μg/mL; second extracellular loop substituted with hCLDN-1
T2 construct: expressed in transfected cells; host or cells: retrovirus-infected cells (pCX4pur)
T2 sequence (O00501 1-218 S151M/V152T/S155N/Q156A/K157R/L160F/A162Q): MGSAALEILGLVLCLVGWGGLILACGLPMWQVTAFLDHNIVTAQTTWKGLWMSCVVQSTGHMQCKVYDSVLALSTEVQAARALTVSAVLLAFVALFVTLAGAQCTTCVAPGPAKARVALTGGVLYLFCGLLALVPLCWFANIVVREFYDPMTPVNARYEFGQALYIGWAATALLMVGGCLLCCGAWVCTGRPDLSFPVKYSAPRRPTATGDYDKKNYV

MDCKII/hCLDN-5 = test: TEER of CLDN-5 compulsory expression system, MDCKII/hCLDN-5; format: cell-based, human; conditions: MDCKII/hCLDN-5, FIG. 7B
1-1-5 = target: T3, 1-1-5 (Homo sapiens, UniProt O00501, A34S/A72N/D37G/E76T/F35Y/G26A/H38D/H61Q/K48E/L36A/M29Q/M62I/Q31R/T33Y/T45A/T46M/T75S/V32I/V56S/V70L/W47Y/Y67F); test: Epitope analysis FACS, chimeric protein 1-1-5; format: binding; conditions: antibody concentration 5 μg/mL; first extracellular loop substituted with hCLDN-1
T3 construct: expressed in transfected cells; host or cells: retrovirus-infected cells (pCX4pur)
T3 sequence (O00501 1-218 G26A/M29Q/Q31R/V32I/T33Y/A34S/F35Y/L36A/D37G/H38D/T45A/T46M/W47Y/K48E/V56S/H61Q/M62I/Y67F/V70L/A72N/T75S/E76T): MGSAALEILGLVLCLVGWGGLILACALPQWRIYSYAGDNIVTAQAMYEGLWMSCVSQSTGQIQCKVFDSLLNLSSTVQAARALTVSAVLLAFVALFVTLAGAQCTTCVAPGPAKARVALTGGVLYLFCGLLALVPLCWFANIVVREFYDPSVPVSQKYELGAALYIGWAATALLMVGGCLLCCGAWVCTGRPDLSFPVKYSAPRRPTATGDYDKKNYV

[3] = system: blood-brain barrier simulation system; test: Material permeability of blood-brain barrier simulation system (monkey BBB kit); format: cell-based; conditions: 12 hours after addition, FIG. 13
hCLDN-5 [4] = target: T4, hCLDN-5 (Homo sapiens, UniProt O00501); test: Western blotting operability, HT-1080/hCLDN-5 lysate; format: binding; conditions: SDS-PAGE under reducing condition, antibody concentration 10 μg/mL, FIG. 5
T4 construct: expressed in transfected cells; host or cells: HT-1080 human fibrosarcoma cells infected with a pCX4pur-derived retrovirus (HT-1080/hCLDN-5)
T4 sequence (O00501 1-218): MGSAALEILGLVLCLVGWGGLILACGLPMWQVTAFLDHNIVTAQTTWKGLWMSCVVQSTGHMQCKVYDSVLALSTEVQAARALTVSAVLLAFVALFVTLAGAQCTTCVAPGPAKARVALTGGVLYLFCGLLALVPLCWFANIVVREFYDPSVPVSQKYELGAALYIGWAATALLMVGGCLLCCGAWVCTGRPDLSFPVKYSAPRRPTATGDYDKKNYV
Procedure: FIG. 5 illustrates western blotting images showing the CLDN-5 primary structure recognizability of the anti-CLDN-5 antibodies obtained in Example 3-6). The primary antibodies used are shown at the top of the images, and the used cells are shown under the primary antibodies. The names of proteins represented by bands are shown on the left side of the images.
Cell lysates were prepared from HT-1080/mock and HT-1080/hCLDN-5 obtained in Example 1-2), and the lysates were separated by SDS-PAGE under a reducing condition. By using the antibodies (antibody concentration: 10 μg/mL) obtained in Example 1 as primary antibodies, western blotting was performed according to the conventional method. As primary antibodies, commercial monoclonal antibodies (4C3C2, Invitrogen, 35-2500) recognizing the C-terminal of CLDN-5 were used as positive control, and β actin antibodies (Sigma Aldrich, A1978) were used as loading control. The results are illustrated in FIG. 5.

ZO-1 = ZO-1 localization by immunostaining in blood-brain barrier simulation system; format: cell-based; conditions: monkey BBB kit, 12 hours after addition, FIG. 14
mCLDN-5 [5] = target: T1, mCLDN-5; test: Evaluation of CLDN specificity by FACS, mCLDN-5-expressing cells; format: binding; conditions: hybridoma culture supernatant as primary antibody, FIG. 1B
hCLDN-5 [6] = test: Epitope analysis by hCLDN-5/mCLDN-5 chimeric CLDN (D68E, T75A, S151T, TM; FACS); format: binding, human; conditions: antibody concentration 5 μg/mL, mutants D68E

B1: R9: rat anti-CLDN-5 monoclonal antibody, IgG2b/K; VH SEQ ID NO: 17, VL SEQ ID NO: 18; example of antibody I (antibody, V domains shown)
VH: QVTLKESGPGILQPSHTLSLTCSFSGFSLNTYGVGVNWIRQPSGKGLEWLASIWWHGKTYINPSLKNRLTVSKDPSNNQAFLEVTNVDPADTATYYCAHARAQLLDYWGQGVMVTVSS
VL: DIVMTQTPSSQAVSAGEKVTMSCKSSQSLLYSGDQKNYLAWYQQKPGQSPKLLIYLTSTRESGVPDRFIGSGSGTDFTLTISSVQAEDLADYYCQQHYSYPLTFGSGTKLEI
modifications: R9 VH; R9 VL
In the case of B1, the “localization properties of CLDN-5 in the intercellular space” value (CLDN-5) is reported as “reduced”, the “extracellular loop of CLDN-5 recognized” value (hCLDN-5 [1]) is reported as “second extracellular loop” and the “binding capacity to mCLDN-5” value (mCLDN-5 [2]) is reported as “extremely low”. For the same molecule, the “recognition of 5-5-1” value (5-5-1) was “incapable of recognizing”, the “reduction in TEER” value (MDCKII/hCLDN-5) was “greatly reducing TEER” and the “recognition of 1-1-5” value (1-1-5) was “capable of recognizing”. For the same molecule, the “4 kDa FITC-dextran permeability of the blood-brain barrier simulation system” value [3] was “exhibited an activity of improving”, the “recognition of linear peptide (western blotting operability)” value (hCLDN-5 [4]) was “strongly recognized” and the “localization properties of ZO-1” value (ZO-1) was “did not change”. For the same molecule, the “binding capacity to mCLDN-5” value (mCLDN-5 [5]) was “extremely low” and the “portion of hCLDN-5 recognized” value (hCLDN-5 [6]) was “domain around the 151st amino acid from the N-terminal present in the second extracellular loop”.
